# According to article doi:10.1101/2024.02.27.582253, “Identification of an evolutionary conserved binding motif responsible for the recruitment of NMD factors to the UPF1 helicase” (bioRxiv, 2024):
# T1: S. cerevisiae Upf1 helicase domain, Upf1-HD-His6 (residues 221-851) (S. cerevisiae, UniProt P30771 221-851)
# T1 construct: Upf1 helicase domain, S. cerevisiae, residues 221-851; residues 224-851 seen in the final model; for the crystal it says only that the protein was purified on TALON resin; source: E. coli BL21 (DE3) Gold, purified (TALON, heparin, SEC); not shown: His6, C-terminal, kept
# T1 sequence (looked up): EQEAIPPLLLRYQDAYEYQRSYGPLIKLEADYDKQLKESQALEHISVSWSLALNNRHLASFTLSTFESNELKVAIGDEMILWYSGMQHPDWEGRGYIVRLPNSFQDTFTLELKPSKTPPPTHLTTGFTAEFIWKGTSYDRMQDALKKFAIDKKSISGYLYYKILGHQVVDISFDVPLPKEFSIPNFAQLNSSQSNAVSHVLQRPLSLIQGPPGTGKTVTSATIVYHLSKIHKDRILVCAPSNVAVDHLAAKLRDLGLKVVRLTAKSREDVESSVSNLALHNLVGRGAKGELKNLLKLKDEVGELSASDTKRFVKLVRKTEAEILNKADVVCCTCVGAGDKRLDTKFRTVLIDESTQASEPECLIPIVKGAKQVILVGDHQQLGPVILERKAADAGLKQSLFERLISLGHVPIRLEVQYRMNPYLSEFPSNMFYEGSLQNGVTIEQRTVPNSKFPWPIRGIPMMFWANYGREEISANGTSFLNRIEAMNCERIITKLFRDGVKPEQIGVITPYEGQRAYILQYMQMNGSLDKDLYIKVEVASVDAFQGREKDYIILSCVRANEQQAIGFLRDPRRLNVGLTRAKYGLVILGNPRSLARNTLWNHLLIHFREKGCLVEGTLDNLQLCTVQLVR
# Target: T1, S. cerevisiae Upf1 helicase domain, …
# Assay: ITC; His6-ZZ-Nmd4 proteins (260 µM full-length and arm, 330 µM PIN) injected into Upf1-HD-His6 (30-35 µM); 20°C; 100 mM Bis-Tris pH 6.5, 200 mM NaCl, 5 mM MgCl2, 5 mM 2-mercaptoethanol; one-binding site model
# Settings: both partners purified
row,Binder,Kd [nM]
1,"His6-ZZ-Nmd4 « arm » (residues 168-218) (domain or fragment, S. cerevisiae, UniProt Q12129 168-218, looked up, Nmd4 C-terminal arm, S. cerevisiae, residues 168-218; also called « arm » region; source: E. coli BL21 (DE3) Gold, purified; not shown: His6, N-terminal, kept; ZZ, N-terminal, kept) NDKSFRESEKFNNMMLKNGTKEESENGREIIRTNFNKTVYASRGTGELWSP",1960
2,"His6-ZZ-Nmd4 full-length protein (S. cerevisiae) (natural protein, UniProt Q12129 1-218, looked up, also called full-length Nmd4; His6-ZZ-Nmd4-FL; source: E. coli BL21 (DE3) Gold, purified (Ni-NTA, heparin, SEC; 3C digestion omitted); not shown: His6, N-terminal, kept; ZZ, N-terminal, kept) MTQYNFIIDASAFEKGLGNIKRWCSDCTEAVTLNFYIPTFTLNELDFLQQRRKSFAARESLKFIDRLDDSKFANLKVFIEFPEVLDIILWSDVMEHNDSSGKINIAKLPKRLKNLLKSCIYKCYLEGNEGLHWFLISEDPQIREMAMQCNIPSCSIVDVDSILSKDMNDKSFRESEKFNNMMLKNGTKEESENGREIIRTNFNKTVYASRGTGELWSP",2100
